# According to patent US20250189530A1 (STCUBE, published 2025):
# Where two headings read alike, the source gives them in different places.
# T1: BTN1A1 Peptide 4 (human)
# T1 construct: also called BTN1A1-pep4- WT; Pep4
# T1 peptide: EVEVGDRTDWAIGVC
# T2: hBTN1A1 ICD (human, UniProt Q13410 270-526)
# T2 sequence: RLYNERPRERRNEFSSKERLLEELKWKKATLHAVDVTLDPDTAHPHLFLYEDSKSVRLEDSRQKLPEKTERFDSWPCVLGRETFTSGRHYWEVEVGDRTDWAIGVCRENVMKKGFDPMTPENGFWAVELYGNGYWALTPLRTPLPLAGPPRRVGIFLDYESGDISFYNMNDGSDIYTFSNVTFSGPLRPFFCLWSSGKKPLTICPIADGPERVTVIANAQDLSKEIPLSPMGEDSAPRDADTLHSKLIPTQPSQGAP
# T3: denatured hBTN1A1 ICD (human, UniProt Q13410 270-526)
# T3 construct: Same protein as hBTN1A1 ICD, denatured before the ELISA; also called hBTN1A1 ICD denatured; Denatured ICD
# T3 sequence: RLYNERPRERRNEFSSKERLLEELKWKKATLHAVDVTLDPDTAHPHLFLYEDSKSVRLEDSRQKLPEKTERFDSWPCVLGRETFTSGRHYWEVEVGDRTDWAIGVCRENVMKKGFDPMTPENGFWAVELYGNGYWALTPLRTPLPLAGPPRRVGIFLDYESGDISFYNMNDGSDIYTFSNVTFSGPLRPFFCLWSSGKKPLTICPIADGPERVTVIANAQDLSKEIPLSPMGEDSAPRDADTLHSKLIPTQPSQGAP
# T4: ECD1 Peptide
# T4 construct: also called BTN1A1 ECD1
# T4 peptide: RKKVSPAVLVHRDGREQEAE
# T5: hBTN1A1-His (human, UniProt Q13410)
# T5 construct: also called human BTN1A1-His
# T5 sequence (antigen, looked up): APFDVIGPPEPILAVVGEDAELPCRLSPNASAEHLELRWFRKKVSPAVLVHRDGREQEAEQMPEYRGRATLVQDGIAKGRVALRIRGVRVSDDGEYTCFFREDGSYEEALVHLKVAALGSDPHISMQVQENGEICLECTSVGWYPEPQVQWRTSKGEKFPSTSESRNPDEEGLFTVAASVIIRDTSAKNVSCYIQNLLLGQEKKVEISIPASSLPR
# Legend:
# BTN1A1 Peptide 4 [1] = biological target: T1, BTN1A1 Peptide 4; experiment: ELISA clone screen, STCube, negative control
# hBTN1A1 ICD [2] = biological target: T2, hBTN1A1 ICD; experiment: ELISA clone screen, STCube, negative control
# denatured hBTN1A1 ICD [3] = biological target: T3, denatured hBTN1A1 ICD; experiment: ELISA clone screen, STCube, negative control
# BTN1A1 Peptide 4 [4] = biological target: T1, BTN1A1 Peptide 4; experiment: ELISA clone screen, GenScript, negative control
# hBTN1A1 ICD [5] = biological target: T2, hBTN1A1 ICD; experiment: ELISA clone screen, GenScript, negative control
# denatured hBTN1A1 ICD [6] = biological target: T3, denatured hBTN1A1 ICD; experiment: ELISA clone screen, GenScript, negative control
# ECD1 Peptide = biological target: T4, ECD1 Peptide; experiment: ELISA clone screen
# hBTN1A1-His [7] = biological target: T5, hBTN1A1-His; experiment: ELISA clone screen
# KLH Only = KLH Only (keyhole limpet); experiment: ELISA clone screen
# hBTN1A1-His [8] = biological target: T5, hBTN1A1-His; experiment: ELISA, titration of purified antibody
# hBTN1A1-His [9] = biological target: T5, hBTN1A1-His; experiment: ELISA, titration of purified antibody; remark: listed apart in the source
# Sequence of KLH Only (keyhole limpet) (Q10583 17-3414): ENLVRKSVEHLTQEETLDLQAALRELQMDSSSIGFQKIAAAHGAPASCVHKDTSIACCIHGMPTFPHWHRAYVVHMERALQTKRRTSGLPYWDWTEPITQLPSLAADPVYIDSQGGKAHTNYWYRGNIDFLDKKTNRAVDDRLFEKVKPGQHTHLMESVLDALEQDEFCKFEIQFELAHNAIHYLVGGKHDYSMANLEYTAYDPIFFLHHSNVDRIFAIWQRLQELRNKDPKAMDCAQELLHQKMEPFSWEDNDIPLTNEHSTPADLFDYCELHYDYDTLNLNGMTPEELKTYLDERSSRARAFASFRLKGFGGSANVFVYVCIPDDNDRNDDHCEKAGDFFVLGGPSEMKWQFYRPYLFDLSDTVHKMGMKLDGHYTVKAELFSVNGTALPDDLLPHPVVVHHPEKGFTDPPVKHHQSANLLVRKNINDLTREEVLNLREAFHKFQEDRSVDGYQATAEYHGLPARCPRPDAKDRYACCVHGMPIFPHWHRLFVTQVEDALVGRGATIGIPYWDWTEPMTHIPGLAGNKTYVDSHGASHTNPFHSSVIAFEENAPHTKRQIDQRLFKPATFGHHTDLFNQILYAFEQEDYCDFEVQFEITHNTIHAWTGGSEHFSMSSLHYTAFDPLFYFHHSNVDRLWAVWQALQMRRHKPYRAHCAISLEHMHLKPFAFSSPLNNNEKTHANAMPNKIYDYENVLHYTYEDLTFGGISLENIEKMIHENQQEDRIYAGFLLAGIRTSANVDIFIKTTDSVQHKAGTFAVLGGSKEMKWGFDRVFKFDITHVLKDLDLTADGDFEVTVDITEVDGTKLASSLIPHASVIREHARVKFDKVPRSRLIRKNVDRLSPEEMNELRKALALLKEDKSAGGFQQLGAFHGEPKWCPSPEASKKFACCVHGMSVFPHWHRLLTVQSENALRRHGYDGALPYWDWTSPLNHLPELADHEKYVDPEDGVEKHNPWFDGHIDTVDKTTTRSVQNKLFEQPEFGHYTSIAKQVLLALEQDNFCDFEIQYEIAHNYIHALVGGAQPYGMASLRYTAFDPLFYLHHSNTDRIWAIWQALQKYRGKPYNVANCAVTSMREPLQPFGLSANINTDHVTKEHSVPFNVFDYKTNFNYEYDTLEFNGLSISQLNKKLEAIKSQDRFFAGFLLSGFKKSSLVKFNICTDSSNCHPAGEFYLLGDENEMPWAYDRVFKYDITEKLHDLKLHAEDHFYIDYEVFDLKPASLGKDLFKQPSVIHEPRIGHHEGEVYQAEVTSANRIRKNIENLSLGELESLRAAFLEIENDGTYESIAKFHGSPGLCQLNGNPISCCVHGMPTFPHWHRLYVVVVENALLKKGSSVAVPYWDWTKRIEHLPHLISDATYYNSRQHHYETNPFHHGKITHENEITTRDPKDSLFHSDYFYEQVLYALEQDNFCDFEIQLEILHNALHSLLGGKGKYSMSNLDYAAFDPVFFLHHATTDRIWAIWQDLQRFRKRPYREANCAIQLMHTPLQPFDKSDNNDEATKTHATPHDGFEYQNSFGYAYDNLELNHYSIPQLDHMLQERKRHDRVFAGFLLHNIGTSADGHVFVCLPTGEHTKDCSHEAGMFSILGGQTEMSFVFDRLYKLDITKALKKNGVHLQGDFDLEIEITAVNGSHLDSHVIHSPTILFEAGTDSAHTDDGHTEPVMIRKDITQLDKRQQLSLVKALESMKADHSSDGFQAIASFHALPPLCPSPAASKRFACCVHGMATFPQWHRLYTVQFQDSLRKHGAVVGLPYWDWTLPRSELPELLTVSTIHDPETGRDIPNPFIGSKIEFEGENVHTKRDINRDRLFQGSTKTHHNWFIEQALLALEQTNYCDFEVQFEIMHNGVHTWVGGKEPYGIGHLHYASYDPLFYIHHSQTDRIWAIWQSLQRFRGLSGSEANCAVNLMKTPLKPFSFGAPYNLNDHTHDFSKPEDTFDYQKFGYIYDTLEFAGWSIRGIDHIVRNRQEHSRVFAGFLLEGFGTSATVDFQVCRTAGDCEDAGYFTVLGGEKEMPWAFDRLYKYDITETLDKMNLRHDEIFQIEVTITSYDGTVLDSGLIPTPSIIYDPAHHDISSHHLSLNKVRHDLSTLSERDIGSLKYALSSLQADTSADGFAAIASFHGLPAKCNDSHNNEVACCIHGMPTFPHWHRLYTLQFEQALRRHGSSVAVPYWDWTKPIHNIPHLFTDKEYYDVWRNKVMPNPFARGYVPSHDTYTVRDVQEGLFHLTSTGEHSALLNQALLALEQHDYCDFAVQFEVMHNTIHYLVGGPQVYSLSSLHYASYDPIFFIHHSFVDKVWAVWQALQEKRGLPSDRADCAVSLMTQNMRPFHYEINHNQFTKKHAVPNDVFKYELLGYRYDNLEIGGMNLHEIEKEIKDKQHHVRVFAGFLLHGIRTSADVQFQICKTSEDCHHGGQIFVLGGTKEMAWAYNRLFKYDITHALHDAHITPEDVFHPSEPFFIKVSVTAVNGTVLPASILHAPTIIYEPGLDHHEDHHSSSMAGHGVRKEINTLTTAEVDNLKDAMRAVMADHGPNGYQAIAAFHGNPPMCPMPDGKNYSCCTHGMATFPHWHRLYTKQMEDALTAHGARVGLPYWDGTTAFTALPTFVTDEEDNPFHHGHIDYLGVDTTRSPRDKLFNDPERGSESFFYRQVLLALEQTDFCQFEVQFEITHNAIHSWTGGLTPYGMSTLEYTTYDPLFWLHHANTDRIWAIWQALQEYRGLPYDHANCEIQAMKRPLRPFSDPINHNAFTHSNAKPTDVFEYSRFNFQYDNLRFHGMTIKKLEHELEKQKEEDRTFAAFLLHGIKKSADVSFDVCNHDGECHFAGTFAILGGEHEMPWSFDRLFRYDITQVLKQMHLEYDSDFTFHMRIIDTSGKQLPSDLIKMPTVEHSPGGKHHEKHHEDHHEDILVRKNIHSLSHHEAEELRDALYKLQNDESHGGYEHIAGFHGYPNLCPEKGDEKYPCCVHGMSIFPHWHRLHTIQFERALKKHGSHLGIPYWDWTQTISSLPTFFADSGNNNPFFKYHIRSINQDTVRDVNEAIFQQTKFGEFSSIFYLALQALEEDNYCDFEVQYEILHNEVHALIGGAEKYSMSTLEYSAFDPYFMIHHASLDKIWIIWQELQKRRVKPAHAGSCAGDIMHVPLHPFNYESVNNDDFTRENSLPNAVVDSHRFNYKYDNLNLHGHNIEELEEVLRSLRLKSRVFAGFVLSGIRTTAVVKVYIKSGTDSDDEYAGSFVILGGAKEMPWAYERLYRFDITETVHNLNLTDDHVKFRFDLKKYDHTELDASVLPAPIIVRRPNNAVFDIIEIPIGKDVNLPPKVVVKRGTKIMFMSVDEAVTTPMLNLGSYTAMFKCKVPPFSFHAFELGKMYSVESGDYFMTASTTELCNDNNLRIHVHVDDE
Molecule,ELISA signal (BTN1A1 Peptide 4 [1]),ELISA signal (hBTN1A1 ICD [2]),ELISA signal (denatured hBTN1A1 ICD [3]),ELISA signal (BTN1A1 Peptide 4 [4]),ELISA signal (hBTN1A1 ICD [5]),ELISA signal (denatured hBTN1A1 ICD [6]),O.D. 450 nm (ECD1 Peptide),O.D. 450 nm (hBTN1A1-His [7]),O.D. 450 nm (KLH Only),EC50 (read off the curve) (hBTN1A1-His [8]) [µg/mL],EC50 (read off the curve) (hBTN1A1-His [9]) [µg/mL]
Negative (control of the clone screen ELISA),0.048,0.04,0.041,0.074,0.063,0.062,–,–,–,–,–
"STC85F1-1 (antibody, V domains shown, From immunized New Zealand rabbits; IgG heavy chain and Kappa light chain; Variable domains without signal peptide; also called clone #85F1-1) VH: QSLEESGGRLVTPGGSLTLTCTVSGIDLSRYGVNWVRQAPGKGLEWIGYIGTTSNTYYASWAKGRFTISKTSSTTVDLKMTSLTTEDTATYFCARSVVSPSNSSFWGQGTLVTVSS VL: DPVMTQTPSSTSAAVGGTVTINCQSSQSVYNNKNLSWFQQKPGQPPKLLIYRASTLPSGVPSRFKGSGSGTQFTLTISDLECDDAATYYCAGGYSGDINVFGGGTEVVVK",–,–,–,–,–,–,3.18,2.91,0.051,~0.02,–
"STC43G3-1 (antibody, V domains shown, From immunized New Zealand rabbits; IgG heavy chain and Kappa light chain; Variable domains without signal peptide; also called clone #43G3-1) VH: QSLEESGGRLVTPGTPLTLTCTVSGIDLSRYGVNWVRQAPGKGLEWIGYIGTTGNTYYASWVNGRFTISKTSTTVELKMTSLTAADTATYFCARSVVSPSNSSFWGQGTLVTVSS VL: DPVMTQTPSSTSAAVGGTVTINCQSSQSVYNNNNLSWFQQKPGQPPKLLIYRASKLPSGVPPRFSGSGSGTQFTLTISSVQCDDAATYFCAGGYSGDINVFGGGTEVVVK",–,–,–,–,–,–,2.66,2.1,0.052,–,~0.02
